In data set [1] the test system is HeLa Kyoto. Description: solubility change mitosis vs G1/S (difference of NP-40 vs SDS log2 ratios) (log2 ratio difference); higher = more soluble in mitosis.
The test system of data set [2] is HeLa Kyoto. The data set is described as follows: melting temperature (median over replicates), in situ; higher = more thermally stable.
The test system of data set [3] is HeLa Kyoto. Description: thermal stability score vs G1/S (z-score of summed log2 fold changes over temperatures); higher = more thermally stable than in G1/S.
The test system of data set [4] is HeLa Kyoto. The data set is described as follows: solubility in G1/S (NP-40 vs SDS abundance) (log2 ratio); higher = more soluble. To be noted: cell cycle stage: G1/S.
Setting [5] is: cell cycle stage: early G1 (4.5 h after nocodazole release).

Results on seven sequences are retold here after the supplement of paper PMC5998384.
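For melting temperature (median over replicates), in situ in this document: HeLa Kyoto cells synchronized by double thymidine or nocodazole block, proteins quantified by TMT10plex mass spectrometry, three independent biological replicates.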
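For solubility change mitosis vs G1/S (difference of NP-40 vs SDS log2 ratios) in this document: synchronized HeLa Kyoto cells (double thymidine block for G1/S, nocodazole release for mitosis), protein amounts in NP-40 versus SDS lysates quantified by mass spectrometry, three biological replicates.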
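For solubility in G1/S (NP-40 vs SDS abundance) in this document: HeLa Kyoto cells arrested at G1/S by double thymidine block, proteins quantified by TMT10plex mass spectrometry in mild NP-40 versus SDS extracts, three biological replicates.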
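For thermal stability score vs G1/S (z-score of summed log2 fold changes over temperatures) in this document: synchronized HeLa Kyoto cells, proteins quantified by TMT10plex mass spectrometry, three biological replicates, mitosis taken 0.5 h after nocodazole release, G1/S directly after double thymidine block.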

In the case of “MAVVPLLLLGGLWSAVGASSLGVVTCGSVVKLLNTRHNVRLHSHDVRYGSGSGQQSVTGVTSVDDSNSYWRIRGKSATVCERGTPIKCGQPIRLTHVNTGRNLHSHHFTSPLSGNQEVSAFGEEGEGDYLDDWTVLCNGPYWVRDGEVRFKHSSTEVLLSVTGEQYGRPISGQKEVHGMAQPSQNNYWKAMEGIFMKPSELLKAEAHHAEL [SDF2]”, the “solubility change mitosis (log2)” value in the data set with HeLa Kyoto [1] is -0.129. The melting temperature with HeLa Kyoto [2] (cell cycle stage: G1/S) was found to be 54.3 °C; in the data set with HeLa Kyoto [2] (cell cycle stage: mitosis), 54.1 °C. The values for the thermal stability score in the data set with HeLa Kyoto [3] (setting [5]) and with HeLa Kyoto [3] (cell cycle stage: mitosis) were 4.15 and 3.09, respectively. Besides, the “solubility in G1/S (log2)” value with HeLa Kyoto [4] was 0.097.

For “MCGIWALFGSDDCLSVQCLSAMKIAHRGPDAFRFENVNGYTNCCFGFHRLAVVDPLFGMQPIRVKKYPYLWLCYNGEIYNHKKMQQHFEFEYQTKVDGEIILHLYDKGGIEQTICMLDGVFAFVLLDTANKKVFLGRDTYGVRPLFKAMTEDGFLAVCSEAKGLVTLKHSATPFLKVEPFLPGHYEVLDLKPNGKVASVEMVKYHHCRDVPLHALYDNVEKLFPGFEIETVKNNLRILFNNAVKKRLMTDRRIGCLLSGGLDSSLVAATLLKQLKEAQVQYPLQTFAIGMEDSPDLLAARKVADHIGSEHYEVLFNSEEGIQALDEVIFSLETYDITTVRASVGMYLISKYIRKNTDSVVIFSGEGSDELTQGYIYFHKAPSPEKAEEESERLLRELYLFDVLRADRTTAAHGLELRVPFLDHRFSSYYLSLPPEMRIPKNGIEKHLLRETFEDSNLIPKEILWRPKEAFSDGITSVKNSWFKILQEYVEHQVDDAMMANAAQKFPFNTPKTKEGYYYRQVFERHYPGRADWLSHYWMPKWINATDPSARTLTHYKSAVKA [ASNS]”, the “solubility change mitosis (log2)” value in the data set with HeLa Kyoto [1] is -0.21. Besides, the melting temperature in the data set with HeLa Kyoto [2] (cell cycle stage: G1/S) was 52.8 °C; with HeLa Kyoto [2] (cell cycle stage: mitosis), 53.1 °C. Also, the thermal stability score with HeLa Kyoto [3] (setting [5]) is 2.34; in the data set on HeLa Kyoto [3] (cell cycle stage: mitosis), -0.215. The “solubility in G1/S (log2)” value in the data set on HeLa Kyoto [4] was -0.142.

On to “MCQVGEDYGEPAPEEPPPAPRPSREQKCVKCKEAQPVVVIRAGDAFCRDCFKAFYVHKFRAMLGKNRLIFPGEKVLLAWSGGPSSSSMVWQVLEGLSQDSAKRLRFVAGVIFVDEGAACGQSLEERSKTLAEVKPILQATGFPWHVVALEEVFSLPPSVLWCSAQELVGSEGAYKAAVDSFLQQQHVLGAGGGPGPTQGEEQPPQPPLDPQNLARPPAPAQTEALSQLFCSVRTLTAKEELLQTLRTHLILHMARAHGYSKVMTGDSCTRLAIKLMTNLALGRGAFLAWDTGFSDERHGDVVVVRPMRDHTLKEVAFYNRLFSVPSVFTPAVDTKAPEKASIHRLMEAFILRLQTQFPSTVSTVYRTSEKLVKGPRDGPAAGDSGPRCLLCMCALDVDAADSATAFGAQTSSRLSQMQSPIPLTETRTPPGPCCSPGVGWAQRCGQGACRREDPQACIEEQLCYSCRVNMKDLPSLDPLPPYILAEAQLRTQRAWGLQEIRDCLIEDSDDEAGQS [CTU2]”, for which the “solubility change mitosis (log2)” value with HeLa Kyoto [1] is -0.166. Moreover, the melting temperature is 53.4 °C with HeLa Kyoto [2] (cell cycle stage: G1/S) and 52.8 °C in the data set on HeLa Kyoto [2] (cell cycle stage: mitosis). Also, the thermal stability score is -0.721 in the data set on HeLa Kyoto [3] (setting [5]) and -0.101 in the data set on HeLa Kyoto [3] (cell cycle stage: mitosis). The “solubility in G1/S (log2)” value in the data set on HeLa Kyoto [4] was 0.28.

On to “MDAALKRSRSEEPAEILPPARDEEEEEEEGMEQGLEEEEEVDPRIQGELEKLNQSTDDINRRETELEDARQKFRSVLVEATVKLDELVKKIGKAVEDSKPYWEARRVARQAQLEAQKATQDFQRATEVLRAAKETISLAEQRLLEDDKRQFDSAWQEMLNHATQRVMEAEQTKTRSELVHKETAARYNAAMGRMRQLEKKLKRAINKSKPYFELKAKYYVQLEQLKKTVDDLQAKLTLAKGEYKMALKNLEMISDEIHERRRSSAMGPRGCGVGAEGSSTSVEDLPGSKPEPDAISVASEAFEDDSCSNFVSEDDSETQSVSSFSSGPTSPSEMPDQFPAVVRPGSLDLPSPVSLSEFGMMFPVLGPRSECSGASSPECEVERGDRAEGAENKTSDKANNNRGLSSSSGSGGSSKSQSSTSPEGQALENRMKQLSLQCSKGRDGIIADIKMVQIG [SH3BP5]”, for which the “solubility change mitosis (log2)” value in the data set with HeLa Kyoto [1] is -0.0509. In addition, the melting temperature in the data set with HeLa Kyoto [2] (cell cycle stage: G1/S) is 53.2 °C; in the data set on HeLa Kyoto [2] (cell cycle stage: mitosis), 52 °C. The figures for the thermal stability score in the data set with HeLa Kyoto [3] (setting [5]) and in the data set on HeLa Kyoto [3] (cell cycle stage: mitosis) were -1.02 and -0.824, respectively. For the same sequence, in the data set with HeLa Kyoto [4], the “solubility in G1/S (log2)” value amounted to 0.134.

In the case of “MDALKSAGRALIRSPSLAKQSWGGGGRHRKLPENWTDTRETLLEGMLFSLKYLGMTLVEQPKGEELSAAAIKRIVATAKASGKKLQKVTLKVSPRGIILTDNLTNQLIENVSIYRISYCTADKMHDKVFAYIAQSQHNQSLECHAFLCTKRKMAQAVTLTVAQAFKVAFEFWQVSKEEKEKRDKASQEGGDVLGARQDCTPSLKSLVATGNLLDLEETAKAPLSTVSANTTNMDEVPRPQALSGSSVVWELDDGLDEAFSRLAQSRTNPQVLDTGLTAQDMHYAQCLSPVDWDKPDSSGTEQDDLFSF [LDLRAP1]”, in the data set on HeLa Kyoto [1], the “solubility change mitosis (log2)” value was found to be 0.0321. This sequence registered a melting temperature in the data set with HeLa Kyoto [2] (cell cycle stage: mitosis) of 50 °C. Also, the thermal stability score in the data set on HeLa Kyoto [3] (setting [5]) is -0.147; with HeLa Kyoto [3] (cell cycle stage: mitosis), 0.000284. Also, the “solubility in G1/S (log2)” value in the data set on HeLa Kyoto [4] was 0.466.

With “MDALQLANSAFAVDLFKQLCEKEPLGNVLFSPICLSTSLSLAQVGAKGDTANEIGQVLHFENVKDVPFGFQTVTSDVNKLSSFYSLKLIKRLYVDKSLNLSTEFISSTKRPYAKELETVDFKDKLEETKGQINNSIKDLTDGHFENILADNSVNDQTKILVVNAAYFVGKWMKKFSESETKECPFRVNKTDTKPVQMMNMEATFCMGNIDSINCKIIELPFQNKHLSMFILLPKDVEDESTGLEKIEKQLNSESLSQWTNPSTMANAKVKLSIPKFKVEKMIDPKACLENLGLKHIFSEDTSDFSGMSETKGVALSNVIHKVCLEITEDGGDSIEVPGARILQHKDELNADHPFIYIIRHNKTRNIIFFGKFCSP [SERPINB5]”, the “solubility change mitosis (log2)” value in the data set with HeLa Kyoto [1] is -0.146. Also, the figures for the melting temperature with HeLa Kyoto [2] (cell cycle stage: G1/S) and in the data set on HeLa Kyoto [2] (cell cycle stage: mitosis) were 52.3 °C and 52.6 °C, respectively. In addition, the thermal stability score in the data set on HeLa Kyoto [3] (setting [5]) stood at 1.51; in the data set on HeLa Kyoto [3] (cell cycle stage: mitosis), 0.174. In addition, the “solubility in G1/S (log2)” value in the data set with HeLa Kyoto [4] turned out to be 0.403.

As to “MDARWWAVVVLAAFPSLGAGGETPEAPPESWTQLWFFRFVVNAAGYASFMVPGYLLVQYFRRKNYLETGRGLCFPLVKACVFGNEPKASDEVPLAPRTEAAETTPMWQALKLLFCATGLQVSYLTWGVLQERVMTRSYGATATSPGERFTDSQFLVLMNRVLALIVAGLSCVLCKQPRHGAPMYRYSFASLSNVLSSWCQYEALKFVSFPTQVLAKASKVIPVMLMGKLVSRRSYEHWEYLTATLISIGVSMFLLSSGPEPRSSPATTLSGLILLAGYIAFDSFTSNWQDALFAYKMSSVQMMFGVNFFSCLFTVGSLLEQGALLEGTRFMGRHSEFAAHALLLSICSACGQLFIFYTIGQFGAAVFTIIMTLRQAFAILLSCLLYGHTVTVVGGLGVAVVFAALLLRVYARGRLKQRGKKAVPVESPVQKV [SLC35B2]”, the “solubility change mitosis (log2)” value in the data set with HeLa Kyoto [1] is -0.177. The melting temperature with HeLa Kyoto [2] (cell cycle stage: G1/S) turned out to be 54.9 °C; with HeLa Kyoto [2] (cell cycle stage: mitosis) it was 56.3 °C. Further, the thermal stability score in the data set on HeLa Kyoto [3] (setting [5]) was -0.147; in the data set on HeLa Kyoto [3] (cell cycle stage: mitosis), 1.08. Also, the “solubility in G1/S (log2)” value in the data set on HeLa Kyoto [4] was determined as 0.112.
